Results: the FLAb antibody collection (doi:10.7554/elife.23156)

B1: scFv; the commonest letter at each place (parent)
chain 1: EVKLDETGGGLVQPGRPMKLSCVASGFTFSDYWMNWVRQSPEKGLEWVAQIRNKPYNYETYYSDSVKGRFTISRDDSKSSVYLQMNNLRVEDMGIYYCTGSYYGMDYWGQGTSVTVS
chain 2: DVVMTQTPLSLPVSLGDQASISCRSSQSLVHSNGNTYLRWYLQKPGQSPKVLIYKVSNRFSGVPDRFSGSGSGTDFTLKISRVEAEDLGVYFCSQSTHVPWTFGGGTKLEIK

Assays:
fluorescein = variants of: B1; assay: Kd (Tite-Seq); details: with fluorescein; format: scFv 4-4-20, heavy + light
[1] = variants of: B1; assay: yeast surface expression (ratio to wild type); higher = more expressed; details: format: scFv 4-4-20, heavy + light

Row | Kd (fluorescein) [µM] | Variant | yeast surface expression [1]
1 | ≥ 10 | chain 1 EVKLDETGGGLVQPGRPMKLSCVASGFTFSDYWMNWVRQSPEKGLEWVAQIRNKPYNYETYYSDSVKGRFTISRDDSKSSVYLQMNNLRVEDMGIYYCTGSWYHMDYWIQGTSVTVS chain 2 DVVMTQTPLSLPVSLGDQASISCRSSQSLVHSNGNTYLRWYLQKPGQSPKVLIYKVSNRFSGVPDRFSGSGSGTDFTLKISRVEAEDLGVYFCSQSTHVPWTFGGGTKLEIK [chain 1 Y102W G104H G109I] | 0.0981
2 | ≥ 10 | chain 1 EVKLDETGGGLVQPGRPMKLSCVASGFTFSDYWPDWVRQSPEKGLEWVAQIRNKPYNYETYYSDSVKGRFTISRDDSKSSVYLQMNNLRVEDMGIYYCTGSYYGMDYWGQGTSVTVS chain 2 DVVMTQTPLSLPVSLGDQASISCRSSQSLVHSNGNTYLRWYLQKPGQSPKVLIYKVSNRFSGVPDRFSGSGSGTDFTLKISRVEAEDLGVYFCSQSTHVPWTFGGGTKLEIK [chain 1 M34P N35D] | 0.873
3 | ≥ 10 | chain 1 EVKLDETGGGLVQPGRPMKLSCVASGFTFSDYWMNWVRQSPEKGLEWVAQIRNKPYNYETYYSDSVKGRFTISRDDSKSSVYLQMNNLRVEDMGIYYCTMSYYGMDTWGQGTSVTVS chain 2 DVVMTQTPLSLPVSLGDQASISCRSSQSLVHSNGNTYLRWYLQKPGQSPKVLIYKVSNRFSGVPDRFSGSGSGTDFTLKISRVEAEDLGVYFCSQSTHVPWTFGGGTKLEIK [chain 1 G100M Y107T] | 0.729
4 | ≥ 10 | chain 1 EVKLDETGGGLVQPGRPMKLSCVASGFTFSDYWMNWVRQSPEKGLEWVAQIRNKPYNYETYYSDSVKGRFTISRDDSKSSVYLQMNNLRVEDMGIYYCTMSYYGMDGWGQGTSVTVS chain 2 DVVMTQTPLSLPVSLGDQASISCRSSQSLVHSNGNTYLRWYLQKPGQSPKVLIYKVSNRFSGVPDRFSGSGSGTDFTLKISRVEAEDLGVYFCSQSTHVPWTFGGGTKLEIK [chain 1 G100M Y107G] | 0.575
5 | ≥ 10 | chain 1 EVKLDETGGGLVQPGRPMKLSCVASGFTFSDYWMNWVRQSPEKGLEWVAQIRNKPYNYETYYSDSVKGRFTISRDDSKSSVYLQMNNLRVEDMGIYYCTGEYYGMDYGGQGTSVTVS chain 2 DVVMTQTPLSLPVSLGDQASISCRSSQSLVHSNGNTYLRWYLQKPGQSPKVLIYKVSNRFSGVPDRFSGSGSGTDFTLKISRVEAEDLGVYFCSQSTHVPWTFGGGTKLEIK [chain 1 S101E W108G] | 0.368
6 | ≥ 10 | chain 1 EVKLDETGGGLVQPGRPMKLSCVASGFTFSDYWMNWVRQSPEKGLEWVAQIRNKPYNYETYYSDSVKGRFTISRDDSKSSVYLQMNNLRVEDMGIYYCTGSYYGMDYDGQGTSVTVS chain 2 DVVMTQTPLSLPVSLGDQASISCRSSQSLVHSNGNTYLRWYLQKPGQSPKVLIYKVSNRFSGVPDRFSGSGSGTDFTLKISRVEAEDLGVYFCSQSTHVPWTFGGGTKLEIK [chain 1 W108D] | 0.345
7 | 0.00245 | chain 1 EVKLDETGGGLVQPGRPMKLSCVASGFTFSSYWMNWVRQSPEKGLEWVAQIRNKPYNYETYYSDSVKGRFTISRDDSKSSVYLQMNNLRVEDMGIYYCTGSYYGMDYWGQGTSVTVS chain 2 DVVMTQTPLSLPVSLGDQASISCRSSQSLVHSNGNTYLRWYLQKPGQSPKVLIYKVSNRFSGVPDRFSGSGSGTDFTLKISRVEAEDLGVYFCSQSTHVPWTFGGGTKLEIK [chain 1 D31S] | 0.902
8 | ≥ 10 | chain 1 EVKLDETGGGLVQPGRPMKLSCVASGFTFHIYWMNWVRQSPEKGLEWVAQIRNKPYNYETYYSDSVKGRFTISRDDSKSSVYLQMNNLRVEDMGIYYCTGSYYGMDYWGQGTSVTVS chain 2 DVVMTQTPLSLPVSLGDQASISCRSSQSLVHSNGNTYLRWYLQKPGQSPKVLIYKVSNRFSGVPDRFSGSGSGTDFTLKISRVEAEDLGVYFCSQSTHVPWTFGGGTKLEIK [chain 1 S30H D31I] | 0.573
9 | ≥ 10 | chain 1 EVKLDETGGGLVQPGRPMKLSCVASGFEFSDYWRNWVRQSPEKGLEWVAQIRNKPYNYETYYSDSVKGRFTISRDDSKSSVYLQMNNLRVEDMGIYYCTGSYYGMDYWGQGTSVTVS chain 2 DVVMTQTPLSLPVSLGDQASISCRSSQSLVHSNGNTYLRWYLQKPGQSPKVLIYKVSNRFSGVPDRFSGSGSGTDFTLKISRVEAEDLGVYFCSQSTHVPWTFGGGTKLEIK [chain 1 T28E M34R] | 0.531
10 | ≥ 10 | chain 1 EVKLDETGGGLVQPGRPMKLSCVASGFTQCDYWMIWVRQSPEKGLEWVAQIRNKPYNYETYYSDSVKGRFTISRDDSKSSVYLQMNNLRVEDMGIYYCTGSYYGMDYWGQGTSVTVS chain 2 DVVMTQTPLSLPVSLGDQASISCRSSQSLVHSNGNTYLRWYLQKPGQSPKVLIYKVSNRFSGVPDRFSGSGSGTDFTLKISRVEAEDLGVYFCSQSTHVPWTFGGGTKLEIK [chain 1 F29Q S30C N35I] | 0.232
11 | ≥ 10 | chain 1 EVKLDETGGGLVQPGRPMKLSCVASGFTFSDYWMNWVRQSPEKGLEWVAQIRNKPYNYETYYSDSVKGRFTISRDDSKSSVYLQMNNLRVEDMGIYYCTNSYYWMDYWGQGTSVTVS chain 2 DVVMTQTPLSLPVSLGDQASISCRSSQSLVHSNGNTYLRWYLQKPGQSPKVLIYKVSNRFSGVPDRFSGSGSGTDFTLKISRVEAEDLGVYFCSQSTHVPWTFGGGTKLEIK [chain 1 G100N G104W] | 0.281
12 | ≥ 10 | chain 1 EVKLDETGGGLVQPGRPMKLSCVASGFTFSDYWMNLVRQSPEKGLEWVAQIRNKPYNYETYYSDSVKGRFTISRDDSKSSVYLQMNNLRVEDMGIYYCTGSYYGMDYWGQGTSVTVS chain 2 DVVMTQTPLSLPVSLGDQASISCRSSQSLVHSNGNTYLRWYLQKPGQSPKVLIYKVSNRFSGVPDRFSGSGSGTDFTLKISRVEAEDLGVYFCSQSTHVPWTFGGGTKLEIK [chain 1 W36L] | 0.686
